# Measured values published in patent publication US20230072640A1 (VANDERBILT UNIVERSITY, published 2023).
# B1: human monoclonal antibody YFV-136 (antibody, V domains shown)
# VH: QVQLQESGPGLVKPSGTLSLTCAVSGGSISSSNWWSWVRQPPGKGLEWIGDIYHSGSTSYNPSLKSRVTISVDRSKNQFSLKLSSVTAADTAVYYCARAPLVNWYYFDYWGQGTLVTVSS
# VL: QSVLTQPPSVSAAPGQKVTISCSGSSSNIGNNYVSWYQQLPGTAPKLLIYDNNKGPSGIPDRFSGSKSGTSATLGITGLQTGDEADYYCGTWDTSLSAGRVFGGGTKLTVL
# Biological target: E protein of YFV-17D virus (Yellow fever virus strain 17D, UniProt P03314 286-778)
# Sequence (P03314 286-778 limits assumed): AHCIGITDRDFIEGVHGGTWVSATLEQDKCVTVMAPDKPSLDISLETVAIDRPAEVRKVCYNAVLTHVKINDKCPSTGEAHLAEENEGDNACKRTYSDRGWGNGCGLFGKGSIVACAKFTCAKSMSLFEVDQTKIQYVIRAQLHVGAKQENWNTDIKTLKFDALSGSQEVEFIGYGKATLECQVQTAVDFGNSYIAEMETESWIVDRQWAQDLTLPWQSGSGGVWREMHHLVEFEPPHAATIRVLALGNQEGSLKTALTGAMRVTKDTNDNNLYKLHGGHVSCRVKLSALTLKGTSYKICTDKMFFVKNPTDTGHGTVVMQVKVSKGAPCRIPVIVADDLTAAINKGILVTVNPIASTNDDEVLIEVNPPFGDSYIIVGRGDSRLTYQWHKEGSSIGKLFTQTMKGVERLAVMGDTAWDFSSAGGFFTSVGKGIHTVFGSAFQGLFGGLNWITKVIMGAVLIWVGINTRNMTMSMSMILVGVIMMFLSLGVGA
# Assay: cell-based or functional assay
binder,measurement,value
B1,"IC50, focus reduction neutralization test (FRNT) of YFV-17D in Vero cells",< 10 ng/mL
